*1 amine or outer side, *2 acyl side, *3 side chain or, on linkers, in order; H or OH if unused. [ ]: non-standard residue; d: D form. The star is where a group is joined. Tyr(OMe) = methoxy tyrosine, COc1ccc(C[C@H](N[*:1])C(=O)[*:2])cc1; WPEG40K = not defined here; Orn = NCCC[C@H](N)C(=O)O; Abu = CC[C@H](N)C(=O)O; Hexanoyl = CCCCCC(=O)*; Aib = CC(C)(N)C(=O)O
Experiments:
human VPAC2 receptor [1] = target: T1, human VPAC2 receptor (human, UniProt P41587 24-438); test: cell-based or functional assay
T1 sequence (looked up): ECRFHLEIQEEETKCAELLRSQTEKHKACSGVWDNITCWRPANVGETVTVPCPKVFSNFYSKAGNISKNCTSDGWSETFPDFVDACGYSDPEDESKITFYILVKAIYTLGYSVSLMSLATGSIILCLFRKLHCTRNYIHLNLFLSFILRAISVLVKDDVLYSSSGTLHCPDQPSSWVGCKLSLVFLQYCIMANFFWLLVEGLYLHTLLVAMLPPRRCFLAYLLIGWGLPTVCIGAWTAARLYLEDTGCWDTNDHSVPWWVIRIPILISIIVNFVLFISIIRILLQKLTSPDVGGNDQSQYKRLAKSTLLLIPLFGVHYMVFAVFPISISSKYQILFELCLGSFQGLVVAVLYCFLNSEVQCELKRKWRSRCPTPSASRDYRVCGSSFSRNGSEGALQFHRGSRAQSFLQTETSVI

rat VPAC1 receptor = target: T2, rat VPAC1 receptor (rat, UniProt P30083 31-459); test: cell-based or functional assay
T2 sequence (looked up): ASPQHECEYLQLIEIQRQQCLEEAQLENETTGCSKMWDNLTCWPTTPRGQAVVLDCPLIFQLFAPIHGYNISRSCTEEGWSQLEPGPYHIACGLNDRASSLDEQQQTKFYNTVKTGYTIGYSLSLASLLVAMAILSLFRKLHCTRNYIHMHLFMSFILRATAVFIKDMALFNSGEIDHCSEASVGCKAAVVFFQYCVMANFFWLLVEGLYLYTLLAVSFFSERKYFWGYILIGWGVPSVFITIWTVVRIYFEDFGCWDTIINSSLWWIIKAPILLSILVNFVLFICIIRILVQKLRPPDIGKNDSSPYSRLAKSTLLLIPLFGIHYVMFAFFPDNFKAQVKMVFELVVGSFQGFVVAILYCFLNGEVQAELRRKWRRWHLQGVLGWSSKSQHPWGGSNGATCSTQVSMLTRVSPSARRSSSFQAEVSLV

rat VPAC2 receptor = target: T3, rat VPAC2 receptor (rat, UniProt P35000 23-437); test: cell-based or functional assay
T3 sequence (looked up): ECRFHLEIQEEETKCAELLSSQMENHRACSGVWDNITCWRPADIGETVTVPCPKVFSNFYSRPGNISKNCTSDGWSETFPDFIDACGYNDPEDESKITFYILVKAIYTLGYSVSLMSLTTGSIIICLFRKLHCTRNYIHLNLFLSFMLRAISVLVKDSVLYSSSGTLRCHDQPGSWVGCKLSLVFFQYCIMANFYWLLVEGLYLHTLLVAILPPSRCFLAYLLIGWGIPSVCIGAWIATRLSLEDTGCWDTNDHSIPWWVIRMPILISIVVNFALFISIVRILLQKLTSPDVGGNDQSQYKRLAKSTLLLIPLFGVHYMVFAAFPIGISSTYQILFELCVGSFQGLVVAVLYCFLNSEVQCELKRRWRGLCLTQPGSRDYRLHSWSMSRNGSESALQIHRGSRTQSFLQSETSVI

human VPAC2 receptor [2] = target: T1, human VPAC2 receptor; test: filter binding, VPAC2 cell membranes, displacement of 125I-VIP
Experimental: Binding assays: Membrane prepared from a stable VPAC2 cell line (see Example 3) or from cells transiently transfected with human VPAC1 or PAC1 are used.
The assay plate is filled with 25 μL assay buffer, 25 μL membranes (2.5 μg) suspended in assay buffer, 25 μL agonist in assay buffer, and 25 μL tracer (about 40000 cpm) in assay buffer. The filled plate is incubated for 1 hour with shaking.
The transfer from assay plate to filter plate is conducted. The blocking buffer is aspirated by vacuum filtration and washed two times with flush buffer. 90 μL is transferred from the assay plate to the filter plate. The 90 μL transferred from assay plate is aspirated and washed three times with 200 μL flush buffer. The plastic support is removed. It is dried for 1 hour at 60° C. 30 μL Microscint is added. The count is performed.

| Binder | Human VPAC2 Receptor: Alphascreen (EC50; nM) (human VPAC2 receptor [1]) [nM] | Rat VPAC1 Receptor: DiscoveRx: (EC50; nM) (rat VPAC1 receptor) [nM] | Rat VPAC2 Receptor: DiscoveRx: (EC50; nM) (rat VPAC2 receptor) [nM] | IC50 (human VPAC2 receptor [2]) [nM] | Human VPAC2 Receptor: DiscoveRx (EC50; nM) (human VPAC2 receptor [1]) [nM] |
| --- | --- | --- | --- | --- | --- |
| C6-HSDAVFTEQ[Tyr(OMe)]T[Orn]LRC(PEG 40 kDa)QLA[Abu][Aib][Orn]YLQ[Aib]I[Orn][Orn]GGPSSGAPPPS-NH2 [P547] | 62 | 76.2 | 150 | 5.6 |  |
| HSDAVFTEQYTXLRXQLAXXXYLQXIXCXGGPSSGAPPPS (C6-HSDAVFTEQY(OMe)TOrnLRAibQLAAbuAibOrnYLQAibIOrnC(PEG40K)OrnGGPSSGAPPPS-NH2) [P537] | 32 | 206 | 38.8 | 17.2 |  |
| HSDAVFTEQYTXLRXQLAXXXYLQSIXXXGGPSSGAPPPC (C6-HSDAVFTEQY(OMe)TOrnLRAibQLAAbuAibOrnYLQSIOrnK(CO(CH2)2SPEG20K)OrnGGPSSGAPPPC(PEG20K)-NH2) [P551] | 15.6 | 172 | 13.2 | 16.6 |  |
| HSDAVFTEQYTXLRXQLAXXXYLQSIXCXGGPSSGAPPPS (C6-HSDAVFTEQY(OMe)TOrnLRAibQLAAbuAibOrnYLQSIOrnC(PEG40K)OrnGGPSSGAPPPS-NH2) [P539] | 10.7 | 32.6 | 21 | 13.5 | 47.3 |
| HSDAVFTEQYTXLRXQLAAXXYLQSIXXCGGPSSGAPPPS (C6-HSDAVFTEQY(OMe)TOrnLRAibQLAAAibOrnYLQSIOrnOrnC(PEG40K)GGPSSGAPPPS-NH2) [P560] | 13.8 | 156 | 20.4 | 11.6 | 11.3 |
| HSDAVFTEQYTXLRXQLAXXXYLQSIXXCGGPSSGAPPPS (C6-HSDAVFTEQY(OMe)TOrnLRAibQLAAbuAibOrnYLQSIOrnOrnC(PEG40K)GGPSSGAPPPS-NH2) [P566] | 11.8 | 52.7 | 13.1 | 8.2 | 7.8 |
| HSDAVFTEQYTXLRXQVAAXXYLQSIXXCGGPSSGAPPPC (C6-HSDAVFTEQY(OMe)TOrnLRAibQVAAAibOrnYLQSIOrnOrnC(PEG20K)GGPSSGAPPPC(PEG20K)-NH2) [P562] | 30.2 | 393 | 52.5 | 42.8 | 24.2 |
| HSDAVFTEQYTXLRXQLAXXXYLQXIXCXGGPSSGAPPPC (C6-HSDAVFTEQY(OMe)TOrnLRAibQLAAbuAibOrnYLQAibIOrnC(PEG20K)OrnGGPSSGAPPPC(PEG20K)-NH2) [P553] | 15 | 262 | 22 | 21.7 |  |
| HSDAVFTEQYTXLRXQLAXXXYLQSIXXCGGPSSGAPPPC (C6-HSDAVFTEQY(OMe)TOrnLRAibQLAAbuAibOrnYLQSIOrnOrnC(PEG20K)GGPSSGAPPPC(PEG20K)-NH2) [P572] | 11.2 | 94.5 | 10.8 | 14.9 |  |
| HSDAVFTEQYTXLRXQLAXXXYLQSIXCXGGPSSGAPPPC (C6-HSDAVFTEQY(OMe)TOrnLRAibQLAAbuAibOrnYLQSIOrnC(PEG20K)OrnGGPSSGAPPPC(PEG20K)-NH2) [P555] | 22.5 | 68.9 | 32.5 | 15.4 | 8.1 |
| Hexanoyl-HSDAVFTEQ[Tyr(OMe)]T[Orn]LRK(WPEG40K)QLA[Abu][Aib][Orn]YLQ[Aib]I[Orn][Orn]GGPSSGAPPPS-NH2 (reading uncertain) [P557] |  | 581 | 397 | 380 | 108 |
| HSDAVFTEQYTXLRXQVAAXXYLQSIXXGGPSSGAPPPS (C6-HSDAVFTEQY(OMe)TOrnLRAibQVAAAibK(CO(CH2)2SPEG20K)YLQSIOrnOrnGGPSSGAPPPS-NH2) [P473] | 26.5 | > 1000 | 25.5 | 256 |  |
| HSDAVFTEQYTXLRXQVAAXXYLQSIXXGGPSSGAPPPS (not fully specified; C6-HSDAVFTEQY(OMe)TOrnLRK(WPEG40K)QVAAAibOrnYLQSIOrnOrnGGPSSGAPPPS-NH2) [P529] | 170 | 1180 | 199 | 192 |  |
| HSDAVFTEQYTXLRXQVAAXXYLQSIXXGGPSSGAPPPS (C6-HSDAVFTEQY(OMe)TOrnLRAibQVAAK(CO(CH2)2SPEG40K)OrnYLQSIOrnOrnGGPSSGAPPPS-NH2) [P475] | 109 | > 1000 | 220 | 436 |  |
| HSDAVFTEQYTXLRCQVAAXXYLQSIXXGGPSSGAPPPS (C6-HSDAVFTEQY(OMe)TOrnLRC(PEG40K)QVAAAibOrnYLQSIOrnOrnGGPSSGAPPPS-NH2) [P483] | 33.5 | 224 | 128 | 37.3 |  |
| HSDAVFTEQYTXLRXQVAAXXYLXSIXXGGPSSGAPPPC (C6-HSDAVFTEQY(OMe)TOrnLRAibQVAAAibOrnYLK(CO(CH2)2SPEG20K)SIOrnOrnGGPSSGAPPPC(PEG20K)-NH2) [P490] | 116 | > 1000 | 192 | 13.2 |  |
| HSDAVFTEQYTXLRXQVAAXXYLXSIXXGGPSSGAPPPS (C6-HSDAVFTEQY(OMe)TOrnLRAibQVAAAibOrnYLK(WPEG40K)SIOrnOrnGGPSSGAPPPS-NH2) [P531] | 94.6 | 301 | 69.9 | 69.7 |  |
| HSDAVFTEQYTXLRXQLAXXXYLQSIXXGGPSSGAPPPCC (C6-HSDAVFTEQY(OMe)TOrnLRAibQLAAbuAibOrnYLQSIOrnOrnGGPSSGAPPPC(PEG20K)C(PEG20K)-NH2) [P523] | 5.8 | 20.4 | 5.3 | 4.8 |  |
| HSDAVFTEQYTXLRXQLAXXXYXQXIXXGGPSSGAPPPCC (C6-HSDAVFTEQY(OMe)TOrnLRAibQLAAbuAibOrnYAibQAibIOrnOrnGGPSSGAPPPC(PEG20K)C(PEG20K)-NH2) [P525] | 25 | 1140 | 44 | 41.8 |  |
| HSDAVFTEQYTXLRXQLAXXXYLQXIXXGGPSSGAPPPCC (C6-HSDAVFTEQY(OMe)TOrnLRAibQLAAbuAibOrnYLQAibIOrnOrnGGPSSGAPPPC(PEG30K)C(PEG30K)-NH2) [P570] | 13.4 | 86.7 | 21.3 | 4.1 | 4.5 |
